These results are taken from article PMC5161667 (Nature, 2016).

Data set [1] has as its target ExbD_(N78C) labeled with MTSL (Ton subcomplex) (E. coli (K-12 strain)) (UniProt P0ABV2). The experiment in a line: DEER spectroscopy.
For data set [2], the target named is ExbD_(E113C) (E. coli (K-12 strain)) (UniProt P0ABV2). Put plainly: cross-linking.
The target of data set [3] is ExbD_(E113C) labeled with MTSL (E. coli (K-12 strain)) (UniProt P0ABV2). Put plainly: DEER spectroscopy.
The target of data set [4] is ExbD_(N78C) labeled with MTSL (fully assembled Ton complex) (E. coli (K-12 strain)) (UniProt P0ABV2). The experiment in a line: DEER spectroscopy.
Data set [5] deals with the molecule itself. Put plainly: crystal structure.
Data set [6] deals with the molecule itself. Put plainly: crystal structure. The source holds these as a separate data set.
The data set “DEER spectroscopy” concerns the molecule itself. Put plainly: DEER spectroscopy.

With “ExbD_(N78C) labeled with MTSL (Ton subcomplex) (from UniProt P0ABV2 1-141) (natural protein)”, the stoichiometry N in data set [1] stood at 2.

In data set [2], “ExbD_(E113C) (from UniProt P0ABV2 1-141) (natural protein)” registered a stoichiometry N of 2.

For “ExbD_(E113C) labeled with MTSL (from UniProt P0ABV2 1-141) (natural protein)”, the stoichiometry N in data set [3] turned out to be 2.

The molecule “ExbD_(N78C) labeled with MTSL (fully assembled Ton complex) (from UniProt P0ABV2 1-141) (natural protein)” came in with a stoichiometry N in data set [4] of 2.

B1: ExbB (natural protein, E. coli (K-12 strain), UniProt P0ABU7 1-244, looked up)
chain: MGNNLMQTDLSVWGMYQHADIVVKCVMIGLILASVVTWAIFFSKSVEFFNQKRRLKREQQLLAEARSLNQANDIAADFGSKSLSLHLLNEAQNELELSEGSDDNEGIKERTSFRLERRVAAVGRQMGRGNGYLATIGAISPFVGLFGTVWGIMNSFIGIAQTQTTNLAVVAPGIAEALLATAIGLVAAIPAVVIYNVFARQIGGFKAMLGDVAAQVLLLQSRDLDLEASAAAHPVRVAQKLRAG
Regarding B1, the “stoichiometry N” value in “crystal structure [5]” was determined as 5.

B2: ExbB_(C25S), selenomethionine-substituted (natural protein, E. coli (K-12 strain), UniProt P0ABU7 1-244, looked up)
chain: MGNNLMQTDLSVWGMYQHADIVVKSVMIGLILASVVTWAIFFSKSVEFFNQKRRLKREQQLLAEARSLNQANDIAADFGSKSLSLHLLNEAQNELELSEGSDDNEGIKERTSFRLERRVAAVGRQMGRGNGYLATIGAISPFVGLFGTVWGIMNSFIGIAQTQTTNLAVVAPGIAEALLATAIGLVAAIPAVVIYNVFARQIGGFKAMLGDVAAQVLLLQSRDLDLEASAAAHPVRVAQKLRAG
modifications: selenomethionine-substituted
Consider B2, for which the “stoichiometry N” value in the data set “crystal structure [6]” was found to be 5.

B3: ExbB labeled at C25 with MTSL (natural protein, E. coli (K-12 strain), UniProt P0ABU7 1-244, looked up)
chain: MGNNLMQTDLSVWGMYQHADIVVKCVMIGLILASVVTWAIFFSKSVEFFNQKRRLKREQQLLAEARSLNQANDIAADFGSKSLSLHLLNEAQNELELSEGSDDNEGIKERTSFRLERRVAAVGRQMGRGNGYLATIGAISPFVGLFGTVWGIMNSFIGIAQTQTTNLAVVAPGIAEALLATAIGLVAAIPAVVIYNVFARQIGGFKAMLGDVAAQVLLLQSRDLDLEASAAAHPVRVAQKLRAG
modifications: MTSL spin label on Cys25 (50% labeling efficiency)
Turning to B3, in the data set “DEER spectroscopy”, the “stoichiometry N” value was 5.

A word on the stoichiometry N: it is the number of molecules, sites or subunits per partner or assembly.
